Results published in patent publication US20180222975A1 (ELEVEN BIOTHERAPEUTICS, published 2018).
Changes are numbered by the printed parent chain.

What was measured:
human IL-6 [1] = target: T1, human IL-6 (human, UniProt P05231 30-212); test: ELISA, hybridoma supernatant on plates coated with human IL-6
T1 construct: also called IL-6 (R&D Systems, cat# 206-IL/CF); biotinylated human IL-6
Procedure: Hybridoma supernatants were screened for IL-6 binding and antagonism. For the binding ELISA, Costar 9018 plates were coated with 1 μg/mL human IL-6 in PBS overnight at 4° C. Wells were blocked with PBS containing 2% BSA, washed, and then incubated with 50 μL of each hybridoma supernatant diluted 1:2 with PBS containing 2% BSA. After 60 minutes, wells were washed three times with 300 μl PBS containing 0.1% Tween-20. Anti-mouse-HRP diluted 1:3000 in PBS-BSA was then added to each well and incubated for 30 minutes. Wells were washed as above then 3,3′,5,5′-tetramethylbenzidine (TMB) substrate was added and the signal measured at 450 and 550 nm. For antagonism studies, HEK-Blue™-IL6 reporter cells (InvivoGen. San Diego, Calif.) were incubated with increasing concentrations of human IL-6 in the presence of 1:10 diluted hybridoma supernatant. After 20-24 hours, 20 μl of supernatant was mixed with 180 μl QuantiBlue™ (InvivoGen) and the absorbance measured at 655 nm.

human IL-6 [2] = target: T1, human IL-6; test: ELISA, blocking of IL-6/IL-6Rα complex binding to gp130
rabbit IL-6 = target: T2, rabbit IL-6 (rabbit, UniProt Q9MZR1 27-241, limits assumed); test: monovalent affinity
T2 sequence (looked up): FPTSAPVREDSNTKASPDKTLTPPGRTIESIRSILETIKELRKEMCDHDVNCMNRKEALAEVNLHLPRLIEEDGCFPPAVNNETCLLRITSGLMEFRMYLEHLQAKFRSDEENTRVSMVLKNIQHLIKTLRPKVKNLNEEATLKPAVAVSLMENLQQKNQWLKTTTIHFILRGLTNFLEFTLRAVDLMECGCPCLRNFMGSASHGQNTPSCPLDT

rat IL-6 = target: T3, rat IL-6 (rat, UniProt P20607 25-211); test: monovalent affinity
T3 construct: also called rodent IL-6
T3 sequence (looked up): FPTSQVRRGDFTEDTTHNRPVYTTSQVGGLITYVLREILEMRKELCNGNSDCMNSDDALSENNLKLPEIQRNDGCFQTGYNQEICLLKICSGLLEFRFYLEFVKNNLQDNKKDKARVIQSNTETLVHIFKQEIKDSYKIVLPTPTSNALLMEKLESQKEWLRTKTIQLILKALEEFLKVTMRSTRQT

[3] = target: African green monkey IL-6 (African green monkey); test: monovalent affinity
dog IL-6 = target: T4, dog IL-6 (dog, UniProt P41323 21-207, limits assumed); test: monovalent affinity
T4 construct: also called canine IL-6
T4 sequence (looked up): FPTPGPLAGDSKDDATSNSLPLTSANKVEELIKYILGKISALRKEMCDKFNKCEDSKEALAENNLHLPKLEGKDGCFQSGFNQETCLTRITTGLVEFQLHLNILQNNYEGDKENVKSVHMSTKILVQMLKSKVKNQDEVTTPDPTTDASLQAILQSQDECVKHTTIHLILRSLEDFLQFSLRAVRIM

mouse IL-6 = target: T5, mouse IL-6 (mouse, UniProt P08505 25-211); test: monovalent affinity
T5 construct: also called rodent IL-6
T5 sequence (looked up): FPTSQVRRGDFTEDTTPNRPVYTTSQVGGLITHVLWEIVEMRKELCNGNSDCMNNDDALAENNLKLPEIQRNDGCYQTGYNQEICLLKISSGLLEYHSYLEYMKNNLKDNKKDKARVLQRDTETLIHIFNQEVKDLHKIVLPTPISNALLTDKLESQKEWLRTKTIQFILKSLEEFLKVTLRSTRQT

human IL-6 [4] = target: T1, human IL-6; test: affinity tested using the yeast system; original humanized h64, before affinity maturation; yeast system

B1: murine 64 antibody (antibody, V domains shown)
VH: QVQLQQSGAELVRPGTSVKVSCKASGYAFSNYLIEWVKQRPGQGLEWIGVITPGSGTINYNEKFKGKAVLTADKSSSTVYMQLSSLTSDDSAVYFCAKSRWDPLYYYALEYWGQGTSVTVSS
VL: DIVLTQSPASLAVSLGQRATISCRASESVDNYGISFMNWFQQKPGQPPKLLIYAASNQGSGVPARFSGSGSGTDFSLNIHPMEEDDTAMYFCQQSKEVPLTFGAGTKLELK
notes: Murine monoclonal; also called hybridoma 64; m64
- binding result (human IL-6 [1]): binds

B2: chimeric murine 64 antibody (antibody, V domains shown)
VH: B1 VH
VL: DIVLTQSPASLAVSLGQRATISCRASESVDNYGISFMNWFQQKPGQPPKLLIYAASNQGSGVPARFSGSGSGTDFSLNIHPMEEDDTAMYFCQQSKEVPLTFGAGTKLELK
notes: constant regions not described
- binding result (human IL-6 [2]): binds

B3: 018 Fab (Fab, V domains shown)
VH: QVQLVQSGAEVKKPGSSVKVSCKASGYALSNYLIEWVRQAPGQGLEWMGVITPGSGTINYAQKFQGRVTITADESTSTAYMELSSLRSEDTAVYYCARSRWDPLYYYALEYWGQGTTVTVSS
VL: DIVMTQSPDSLAVSLGERATINCRASESVDNYGIPFMNWYQQKPGQPPKLLIYAASNRGSGVPDRFSGSGSGTDFTLTISSLQAEDVAVYYCQQSEEVPLTFGQGTKLEIKR
notes: Fab with CK and IgG1 CH1 domains; also called Fab fragment of the h64-1,4 humanized antibody
- Kd (rabbit IL-6): > 1000 nM
- Kd (rat IL-6): > 1000 nM
- Kd [3]: 0.28 nM
- Kd (dog IL-6): > 1000 nM
- Kd (mouse IL-6): > 1000 nM

B4: h64 IgG (antibody, V domains shown)
VH: B3 VH with L29F
VL: DIVMTQSPDSLAVSLGERATINCRASESVDNYGISFMNWYQQKPGQPPKLLIYAASNQGSGVPDRFSGSGSGTDFTLTISSLQAEDVAVYYCQQSKEVPLTFGQGTKLEIK
notes: also called original h64 antibody; original humanized molecule
- Kd (human IL-6 [4]): 0.343 nM
